Here are results for six molecules from patent US20260132208A1 (DOMAIN THERAPEUTICS, published 2026).

Values joined by “and” are separate entries in the source; they are usually repeats but may differ in a detail not shown here. Equal entries are not always repeated.

The target of assay [1] is T1, human CCR8 (human, UniProt P51685 1-355). Nature of the assay: cell-based or functional assay.
For assay [2], the target named is T1, human CCR8. Nature of the assay: cell-based or functional assay. This is another data set of the same source.
Assay [3] concerns the target T1, human CCR8. Description: flow cytometry, hCCR8-transfected CHO-K1 cells. As for the experimental part:
Briefly, 1.10⁵ cells per well in a 96 well plate were incubated with a dilution of unconjugated anti-CCR8 mAb at 10 μg/mL then diluted at 1/3.33, 4 dilution points (during 30 min at 4° C.). In human activated T cells model, prior to mAb incubation, cells were first incubated with 200 nM of hCCL1 (R&D Systems, Minneapolis, MN, USA) or buffer PBS (Invitrogen by Thermofisher Scientific, Illkirch-Graffenstaden, France) supplemented by 2% Fetal Bovine Serum (Invitrogen by Thermofisher Scientific, Illkirch-Graffenstaden, France) and 2 mM EDTA (Invitrogen by Thermofisher Scientific, Illkirch-Graffenstaden, France) during 1 hour at 4° C. To determine EC50 value, 8 concentrations of anti-CCR8 mAb were tested. Unbound antibodies were washed away with PBS (Invitrogen by Thermofisher Scientific, Illkirch-Graffenstaden, France) supplemented by 2% Fetal Bovine Serum (Invitrogen by Thermofisher Scientific, Illkirch-Graffenstaden, France) and 2 mM EDTA (Invitrogen by Thermofisher Scientific, Illkirch-Graffenstaden, France). Subsequently, cells are centrifuged (5 min at 400 g) and bound antibody is detected with F(ab′)2-Goat anti-Mouse IgG (H+L) Cross-Adsorbed Secondary Antibody, Alexa Fluor 488 (dilution 1/500) (Invitrogen by Thermofisher Scientific, Illkirch-Graffenstaden, France) or with F(ab′)₂-Goat anti-Human IgG Fc Secondary Antibody, PE (Invitrogen by Thermofisher Scientific, Illkirch-Graffenstaden, France) (dilution 1/1000) at 4° C. for 30 min. Detection reagent is washed away and cells are centrifuged (5 min at 400 g) and resuspended in 30 μL PBS. Bound detection antibody is quantified on a MacsQuant16 (Miltenyi, Gladbach, Germany) (B1 or B2 channel, 5000 events per acquisition). During the experiment, the respective isotype mAb controls (mouse IgG1, mouse IgG2a, mouse IgG2b, mouse IgG3 or human IgG1) (Biolegend, Amsterdam, The Netherlands) are included to exclude any unspecific binding events. EC50 values were determined via nonlinear fit “log (agonist) vs.response—Variable slope (four parameters)” function of Graphpad prism. EC50 values were not constantly determined in the same experiments.
Background: Flow cytometry measures light scatter and fluorescence of single cells or particles in a stream.

Assay [4] addresses T1, human CCR8. Nature of the assay: cell-based or functional assay. The source holds these as a separate data set.
Assay [5] has as its target T1, human CCR8. Description: flow cytometry, inhibition of hCCL1-AF647 (10 nM) binding to hCCR8-CHO cells. As for the experimental part: The hCCR8 transfected CHO cell line was dispatched at a density of 1.105 per well in a 96-well plate. Cells were incubated for 30 min at 4° C. with or without anti-CCR8 mAb tested at 10 μg/mL then diluted at 1/3. Unbound antibodies were washed away with PBS (Gibco, Villebon-sur-yvette, France) supplemented by 2% Fetal Bovine Serum (Invitrogen by Thermofisher Scientific, Illkirch-Graffenstaden, France) and 2 mM EDTA. […] After washing unbound ligands, CCL1 bound detection is quantified on a MacsQuant16 (Miltenyi, Gladbach, Germany) (R1 channel, 5 000 events per acquisition).
For IC₅₀ determination, a concentration response curve is performed using 8 concentrations of mAb. Curves are fitted and IC₅₀ of CCL1 binding blocking activity is calculated using the sigmoidal dose-response (variable slope) model on GraphPad Prism 9 (GraphPad Software, San Diego, CA, USA).

In assay [6] the target is T1, human CCR8. Nature of the assay: cell-based or functional assay. This is another data set of the same source.
Assay [7] addresses T1, human CCR8. Nature of the assay: cell-based or functional assay. This is another data set of the same source.

B1: anti-CCR8 mAb 1-33 (antibody, human IgG1, kappa)
heavy: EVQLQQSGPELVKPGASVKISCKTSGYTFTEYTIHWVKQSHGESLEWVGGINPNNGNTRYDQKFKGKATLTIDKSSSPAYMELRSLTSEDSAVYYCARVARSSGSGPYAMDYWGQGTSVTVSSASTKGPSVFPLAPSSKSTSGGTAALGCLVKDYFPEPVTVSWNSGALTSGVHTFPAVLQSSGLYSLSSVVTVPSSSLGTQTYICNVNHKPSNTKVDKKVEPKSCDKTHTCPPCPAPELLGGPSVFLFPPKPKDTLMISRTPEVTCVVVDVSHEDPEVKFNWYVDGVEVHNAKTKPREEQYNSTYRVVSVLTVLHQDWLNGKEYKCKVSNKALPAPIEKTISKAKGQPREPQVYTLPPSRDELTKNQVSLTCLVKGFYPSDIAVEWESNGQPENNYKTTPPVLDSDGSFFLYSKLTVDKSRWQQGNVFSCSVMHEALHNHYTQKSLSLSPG
light: DVVMTQTPLSLPVSLGDQASISCRCTQSLLHTNGDTYLHWYLQKPGQSPKLLIYKVSNRFSGVPDRFSGSGSGTDFTLKISRVEAEDLGVYFCSQSTHVPYTFGGGTKLEIKRTVAAPSVFIFPPSDEQLKSGTASVVCLLNNFYPREAKVQWKVDNALQSGNSQESVTEQDSKDSTYSLSSTLTLSKADYEKHKVYACEVTHQGLSSPVTKSFNRGEC
Regarding B1, in the assay with human CCR8 [1], the “ADCC % max lysis, HUT78 targets, NK donor 3” value (“ADCC % max lysis … NK donor 3” below) amounted to 14%; the “ADCC % max lysis, HUT78 targets, NK donor 4” value (from here on “ADCC % max lysis … NK donor 4”) amounted to 15%; the “ADCC EC50, HUT78 targets, NK donor 3” value is 0.793 nM; the “ADCC EC50, HUT78 targets, NK donor 4” value was 1.52 nM.

B2: anti-CCR8 mAb 1-35 (antibody, human IgG1, kappa)
heavy: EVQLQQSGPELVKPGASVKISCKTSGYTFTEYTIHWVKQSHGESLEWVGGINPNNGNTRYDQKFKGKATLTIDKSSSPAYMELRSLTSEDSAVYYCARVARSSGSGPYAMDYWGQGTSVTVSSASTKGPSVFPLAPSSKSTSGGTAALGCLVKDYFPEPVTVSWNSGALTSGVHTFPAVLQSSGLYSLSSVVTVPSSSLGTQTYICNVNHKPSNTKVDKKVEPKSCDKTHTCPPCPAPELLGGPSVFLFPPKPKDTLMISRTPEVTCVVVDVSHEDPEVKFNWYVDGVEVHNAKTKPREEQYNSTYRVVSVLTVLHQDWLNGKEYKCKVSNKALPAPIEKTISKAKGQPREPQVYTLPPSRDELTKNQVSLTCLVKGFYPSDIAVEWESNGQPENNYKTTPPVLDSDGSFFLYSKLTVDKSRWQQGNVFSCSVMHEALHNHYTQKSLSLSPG
light: DVVMTQTPLSLPVSLGDQASISCRCTQSLLHTNGDTYLHWYLQKPGQSPKLLIYKVSNRFSGVPDRFSGSGSGTDFTLKISRVEAEDLGVYFCSQSTHVPYTFGGGTKLEIKRTVAAPSVFIFPPSDEQLKSGTASVVCLLNNFYPREAKVQWKVDNALQSGNSQESVTEQDSKDSTYSLSSTLTLSKADYEKHKVYACEVTHQGLSSPVTKSFNRGEC
modifications: hypofucosylated (low fucosylated) Fc glycan
On to B2, for which, in the assay with human CCR8 [1], the “ADCC % max lysis … NK donor 3” value was 29%; the “ADCC % max lysis … NK donor 4” value amounted to 29%; the “ADCC EC50, HUT78 targets, NK donor 3” value was determined as 0.195 nM; the “ADCC EC50, HUT78 targets, NK donor 4” value was found to be 0.282 nM.

B3: anti-CCR8 mAb 1-17 (antibody, V domains shown)
VH: QVQLQQPGSELVRPGASVKLSCKASGYTFTSYWMHWVKQRPGQGLEWIGNIWPGSASTNYDEKFKNKATLTVDTSSSTAYMQLSSLTSEDSAVYYCIRGGKGAMDYWSQGTSVTVSS
VL: DVVMTQIPLSLPVSLGDQASISCRSSQSLENSYGNTYLNWYLQKPGQSPQLLIYRVSNRFSGVLDRFSGSGSGTDFTLKISRVEAEDLGVYFCLQVTHVPPTFGAGTKLELK
notes: Murine hybridoma mAb
Consider B3, for which the “extrapolated top plateau of hCCL1 curve with 5 µg/mL mAb, protocol #3” value with human CCR8 [2] is 193000 % of hCCL1 (100 nM). For the same molecule, in the assay with human CCR8 [3], the “% positive cells” value amounted to 81.6% and the “MFI fold change to isotype ctrl” value is 9.92 fold. Further, in the assay with human CCR8 [4], the “residual hCCL1 (100 nM) Gi2 response, protocol #2, mAb 0.08 µg/mL” value is 99%; the “residual hCCL1 (100 nM) Gi2 response, protocol #2, mAb 0.4 µg/mL” value stood at 83%; the “residual hCCL1 (100 nM) Gi2 response, protocol #2, mAb 10 µg/mL” value was determined as 56%; the “residual hCCL1 (100 nM) Gi2 response, protocol #3, mAb 0.05 µg/mL” value was 116%. Besides, in the assay with human CCR8 [4], the “residual hCCL1 (100 nM) Gi2 response, protocol #3, mAb 0.5 µg/mL” value came out at 90% and the “residual hCCL1 (100 nM) Gi2 response, protocol #3, mAb 5 µg/mL” value was found to be 45%. The IC50 (commonly the concentration at which inhibition is half-maximal) in the assay with human CCR8 [5] is 1.18 µg/mL and 7.92 nM. For the same molecule, in the assay with human CCR8 [6], the “IC50 of CCL1-induced hCCR8 Gi2 signaling (BRET, HEK-293)” value was 0.026 µg/mL and 0.172 nM.

B4: anti-CCR8 mAb 1-45 (antibody, human IgG1, kappa)
heavy: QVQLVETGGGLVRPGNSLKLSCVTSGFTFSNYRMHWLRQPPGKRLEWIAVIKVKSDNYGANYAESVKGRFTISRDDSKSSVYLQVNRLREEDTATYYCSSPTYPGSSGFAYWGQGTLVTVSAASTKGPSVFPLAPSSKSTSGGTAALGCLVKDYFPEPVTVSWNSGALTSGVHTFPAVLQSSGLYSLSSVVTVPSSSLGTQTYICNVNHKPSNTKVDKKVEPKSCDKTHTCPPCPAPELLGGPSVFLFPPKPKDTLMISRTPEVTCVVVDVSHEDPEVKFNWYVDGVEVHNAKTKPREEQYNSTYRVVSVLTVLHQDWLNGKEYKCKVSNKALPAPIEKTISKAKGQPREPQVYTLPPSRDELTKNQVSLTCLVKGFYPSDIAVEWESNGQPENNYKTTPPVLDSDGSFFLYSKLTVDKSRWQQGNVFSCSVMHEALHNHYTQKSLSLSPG
light: DIQMTQTTSSLSASLGDRVTISCRASQDISNYLNWYQQKPDGTVKLLIYYTSRLHSGVPSRFSGSGSGTDYSLTISNLEQEDIATYFCQQGNKFPPTFGGGTKLEINRTVAAPSVFIFPPSDEQLKSGTASVVCLLNNFYPREAKVQWKVDNALQSGNSQESVTEQDSKDSTYSLSSTLTLSKADYEKHKVYACEVTHQGLSSPVTKSFNRGEC
As for B4, in the assay with human CCR8 [1], the “ADCC % max lysis … NK donor 3” value worked out at 16%; the “ADCC % max lysis … NK donor 4” value was 18%; the “ADCC EC50, HUT78 targets, NK donor 3” value amounted to 0.291 nM; the “ADCC EC50, HUT78 targets, NK donor 4” value was determined as 0.406 nM.

B5: anti-CCR8 mAb 1-48 (antibody, human IgG1, kappa)
heavy: QVQLVETGGGLVRPGNSLKLSCVTSGFTFSNYRMHWLRQPPGKRLEWIAVIKVKSDNYGANYAESVKGRFTISRDDSKSSVYLQVNRLREEDTATYYCSSPTYPGSSGFAYWGQGTLVTVSAASTKGPSVFPLAPSSKSTSGGTAALGCLVKDYFPEPVTVSWNSGALTSGVHTFPAVLQSSGLYSLSSVVTVPSSSLGTQTYICNVNHKPSNTKVDKKVEPKSCDKTHTCPPCPAPELLGGPDVFLFPPKPKDTLMISRTPEVTCVVVDVSHEDPEVKFNWYVDGVEVHNAKTKPREEQYNSTYRVVSVLTVLHQDWLNGKEYKCKVSNKALPLPEEKTISKAKGQPREPQVYTLPPSRDELTKNQVSLTCLVKGFYPSDIAVEWESNGQPENNYKTTPPVLDSDGSFFLYSKLTVDKSRWQQGNVFSCSVMHEALHNHYTQKSLSLSPG
light: DIQMTQTTSSLSASLGDRVTISCRASQDISNYLNWYQQKPDGTVKLLIYYTSRLHSGVPSRFSGSGSGTDYSLTISNLEQEDIATYFCQQGNKFPPTFGGGTKLEINRTVAAPSVFIFPPSDEQLKSGTASVVCLLNNFYPREAKVQWKVDNALQSGNSQESVTEQDSKDSTYSLSSTLTLSKADYEKHKVYACEVTHQGLSSPVTKSFNRGEC
As for B5, in the assay with human CCR8 [1], the “ADCC % max lysis … NK donor 3” value turned out to be 25%; the “ADCC % max lysis … NK donor 4” value is 30%; the “ADCC EC50, HUT78 targets, NK donor 3” value was found to be 0.00822 nM; the “ADCC EC50, HUT78 targets, NK donor 4” value worked out at 0.0489 nM.

B6: anti-CCR8 mAb 1-16 (antibody, V domains shown)
VH: EVQLQQSGPELVKPGASVKISCKASVYSFTGSYMHWVKQSHVKSLEWIGRINPYNGATSYNQNFKDKASLTVDKSSSTAYMELHSLTSEDSAVYYCATTLLRLLDYWGQGTTLTVSS
VL: DIVMTQAAFSNPVTLGTSASISCRSSKSLLHSNGITYLYWYLQKPGQSPQLLIYQMSNLASGVPDRFSSSGSGTDFTLRISRVEAEDVGVYYCAQNLELPWTFGGGTKLEIK
notes: Murine hybridoma mAb
B6: the “extrapolated top plateau of hCCL1 curve with 5 µg/mL mAb, protocol #3” value with human CCR8 [2] was 292 % of hCCL1 (100 nM). In the assay with human CCR8 [3], the “% positive cells” value was found to be 34.7% and the “MFI fold change to isotype ctrl” value stood at 2.34 fold. Further, in the assay with human CCR8 [4], the “residual hCCL1 (100 nM) Gi2 response, protocol #2, mAb 0.08 µg/mL” value turned out to be 97%; the “residual hCCL1 (100 nM) Gi2 response, protocol #2, mAb 0.4 µg/mL” value was determined as 96%; the “residual hCCL1 (100 nM) Gi2 response, protocol #2, mAb 10 µg/mL” value was 84%; the “residual hCCL1 (100 nM) Gi2 response, protocol #3, mAb 0.05 µg/mL” value came to 96%. In addition, in the assay with human CCR8 [4], the “residual hCCL1 (100 nM) Gi2 response, protocol #3, mAb 0.5 µg/mL” value stood at 81% and the “residual hCCL1 (100 nM) Gi2 response, protocol #3, mAb 5 µg/mL” value is 73%. In the assay with human CCR8 [7], the “IC50 of CCL1-induced hCCR8 Gi2 signaling (BRET), pH 6.5” value is 0.162 µg/ml and 1.08 nM; the “IC50 of CCL1-induced hCCR8 Gi2 signaling (BRET), pH 7.4” value is 0.152 µg/ml and 1.01 nM. Also, in the assay with human CCR8 [5], the IC50 was 6.41 µg/mL and 43 nM. Also, the “IC50 of CCL1-induced hCCR8 Gi2 signaling (BRET, HEK-293)” value with human CCR8 [6] is 0.092 µg/mL and 0.616 nM.
